From the RNAGym collection of RNA variant scans (doi:10.1073/pnas.2313332121)
Variants at the floor of the assay were thinned out.

B1: TPR 5TU (parent)
chain: GGAUCUUCUCGAUCUAACAAAAAAGACAAAUCUGCCACAAAGCUUGAGAGCAUCUUCGGAUGCAGAGGCGGCAGCCUUCGGUGGCGCGAUAGCGCCAACGUUCUCAACUAUGACACGCAAAACGCGUGCUCCGUUGAAUGGAGUUUAUCAUG

Variants of: B1
Test: polymerase ribozyme fitness, log enrichment relative to wild type (log ratio); higher = more active; in vitro selection for triplet polymerase activity
How it was run: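 PCR was used to build mutant libraries for each subunit of a heterodimeric triplet polymerase ribozyme, which were then transcribed. A single in vitro selection round, in triplicate, used a frozen incubation at −7 °C and recovered extended constructs by gel excision, streptavidin beads and RT-PCR. Fitness is the logarithm of genotype enrichment relative to wild-type enrichment, averaged over replicates with inverse-variance weights. The logarithm is base 2, and after Illumina sequencing only genotypes with ≥10 input reads and ≥1 read per output were kept.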

Variant	polymerase ribozyme fitness (log ratio)
GGAUCUUCUCGAUCUAACAAAAAAGACAAAUCUGCCUCUAAGCUUGAGCCCAUCUUCGGAUGCAGAGGCGGCAGCCUUCGGUGACGCGAUAGCGCCACCGUUCUCAACUAUGACACGCAAAACGCGUGCUCCGUUGAAUGGAUUUUAUCAUG [A37U A39U A49C G50C G84A A98C G143U]	≤ -4.2
GGAUCUUCUCGAUCUAACAAAAAAGACAAAUCUGCCACAAAGCUAGAGAGCAUCUUCGGAUGCAGAGGCGGCAGCCUUCGGUGGCGCGAUAGCGCGAACGUUCUCAACUAUGACACGCAAUACGCGUGCUCCGUUGAAUGGAGUUUAUCAUG [U45A C96G A121U]	-2.93
GGAUAUUCUCGGUCUAACAAAAAAGACAAAUCUGCCACAAAGCUUGAGAGCAUCUUCGGAUGCAGAGGCGGCAGCCUUCGGUGACGCAAUAGCGCCUACGUUCUCAACUAUGACAAGCAAAACGCGUGCUCCGUUGAAUGGAGUUUAUCAUG [C5A A12G G84A G88A A97U C116A]	-3.84
GGAUCUUCUCGAUCUAACAAAGAAGACAAAUCUGCCACAAAGCUUGAGAGCAUCUACGGAUGCAGAGGCGGCAGCCUUCGGUGGUGCGAUAGCGCCAACGUUCUCAACUAUGACACGCAAAACGCGUGCUCCGUUGAAUGGAGUUUAUCAUG [A22G U56A C85U]	-0.116
GGAUCUUCUCGAUCUAACAAAAAAGACAAAUCUGCCACAAAGCUUGAGAGCACCUUCGGAUGCAGAGGCGGCAGCCUUCGGUGGCGCGAUAGCGCCAACGUUCUCAACUAUGACACGCAAAGCGCGUGCUCCGUUGAAUGGAGUUUAUCAUG [U53C A122G]	-0.671
GGAUCUUCUCGAUCUAACAAAAAAGACAAAUCUGCCACAAAGCUGGAGAGCAUCUUCGGAUGCAGAGGCGGCAGCCUUCGGUCGCGCGAUAGCGCCAACGUUCUCAACUAUGACACACAAAACGCGUGCUCCGUUGAAUGGAGUUUAUCAUG [U45G G83C G117A]	-1.29
GGAUCUUCUCGGUCUAACAAAAAAGACAAAUCUGCUCCAAAGCUUGAGAGCAUCUUCGCAUGCAGAGGCGGCAGCCUUCGGUGGCGCGAUAGCGCCAACGUACUCAACUAUGACACGGACAACGCGUGCUCCGUUGAAUGGAGUUAAUCAUG [A12G C36U A37C G59C U102A C118G A120C U146A]	≤ -4.2
GGAUCUUCACGAUCUAACAAAAAAGACAAAUCUGCCACAAAGCUUGAGAGCACCUUCGGAUGCUGAGGCGGCAGCCUUCGGUGGCGAGAUAGCGCCAACGUUCUCAACUAUGACACGCAAAACGCGUGCUCCGUUUAAUGGAGUUUAUCGUG [U9A U53C A64U C87A G136U A150G]	≤ -4.2
GGAUCUUCUCGAUCUAACAAAAAAGACAAAUCUGCCACAAAGCUUGAGAGCAUCUUCGGAUGCAGAGGCGACAGCCUUCGGUGGCGCGAUAGUGCCAACGUUCUCAACUAUGACACGCAAAACGCGUGCUCCGUUGAAUGGAGUUUAUCAUG [G71A C93U]	-2.94
GGAUCUUCUCGAUCUAACAAAAAAGACAAAUCUGCCACAAAGCUUGAGAGCAACUUCGGAUGCAGACGCGGCAGCCUUCGGUGGUGCGAUAGCGCCAACGUUCUCAACGAUGACUCGCAAAACGCGUGCUCCGUUGAAUGGAGUUUAUCAUG [U53A G67C C85U U109G A115U]	≤ -4.2
GGAUCUUCUCGAUCUAACAAAAAAGACAAAUCUGCCACAAAGCUUGCGAGCAUCUUCUGAUGCAGAGGCGGCAGCCUUCGGUGGCGCGAUAUCGCCUACGUUCUCAACUAUGACACGCAAAACGCGUGCUCCGUUGAAUGGAGUUUAUCAUG [A47C G58U G92U A97U]	-1.96
GGAUCUUCUCGAUCUAACAAAAAAGACAAAUCUGCUACAAAGCUUGAGAGCAUCUUCGGAUGCAGAGGCGGCAGCCUUCGGUGGCGCGAUAGCGCCAACGUUCUCGACUAUGAGACGCAAAACGCGUGCUCCGUUGAAUGGAGUUUAUCAUG [C36U A106G C114G]	-3.87
GGAUCUUCUCGAUCUAACAAAAAAGACAAAUCUGCCACAAAGCUUGAGAGCAUCUUCUGAAGCAGAGGCGGCAGCCUUCGGUGGCGCGAUAGCGCCAACGUUCUCAACUAUGACACGCAAAACGCGUGCUCCGUAGAAUGGAGUUUAUCAUG [G58U U61A U135A]	-1.67
GGAUCUUCUCGAUCUAACAAAAAAGACAAAUCUGCCACAAAGCUUGAGAGCAUCUUCGGAUGCAGAGGCGGCAGCCUUCGGUGGCGCGAUAGCGCCAACGUUCUCAACUAUGCCACGCAAAACGCGUGCUCCGUAAAAUGGAGUUUAUCAUG [A113C U135A G136A]	-4.05
GGAUCUUCUCGAUCUAACAAAAAAGACCAAUCUGCCACAAAGCUUGAGAGCAUCUUCGGAUGCAGAUGCGGCAGCCUUCGGUGGCGCGAUAGCGCCAACGUUCUCAACUAUGACACGCAAAACGCGUGCUCCGUUGAAUGGAGCUUAUCACG [A28C G67U U144C U151C]	≤ -4.2
GGAUCUUCUAGAUCUAACAGAAAAGACAAAUCUGCCAAAAAGCUUGAGAGCAUCAUCGGCUGCAGAGGCGGCAGCCUUCGGUGGCGCGAUAGCGCCAACGUUCUCAACUAUGACACGCAAAACGCGUGCUCCGUUGAAUGGAGUUUAUCAUG [C10A A20G C38A U55A A60C]	≤ -4.2
GGAUCUUCUCGAUCUAACAAAAAAGACAAAUCUGCCACAAUACCUGAGAGCAUCUUCGGAUGCUGAGGCGGCAGCGUUCGGUGGCGCGAUAGCGCUAACGUUCUCAUCUAUGACACGCAAAACGCGUGCUCCGUUGAAUGGAGUUUAUCAUG [A41U G42A U44C A64U C76G C96U A107U]	≤ -4.2
GGAUCUUCUCGAUCUAACAAAAAGGACAAAUCUGCCACAAAGCUUGAGAGCAUCUUCGGAUGCAGAGGCGCCAGCCUUCGGUCGCGUGAUAGCGCUAACGUUCUCAACUAUGACACGCAAAACGCGUGCUCCGUUGAAUGGAGUUUAUAAUG [A24G G71C G83C C87U C96U C149A]	≤ -4.2
GGAUCUUCUCGGUCUAACAAAAAAGACAAAUCUGCCACAAGGCUUGAGAGCAUCUUCGGAUGCAGAGGCGGCAGCCUUCGGUGGCGCGAUAGCGCCAACGUUCUCAACUAUGACACGCAAAACGCGUGCUCCGUUGAAUGGAGUUUAUCAUG [A12G A41G]	0.519

Variant	polymerase ribozyme fitness (log ratio)
GGAUCUUCUCGAUCUAACAAAAAAGACAAAUCUGCCACAAAGCUUGAGAGCAUCUUCGGAUGCAGAGGCGGCAGCCUUGGGUGGCGGGAUAGCGCCAACGUUCUCAACUAUGAGACGCAAAACGCGUGCUCCGUUGAAUGGAGUUUAUCAUG [C79G C87G C114G]	≤ -4.2
GGAUCUUCUCGAUCUAUCAAAAAAGUCAAAUCUGCCACAAAGCUUGCGCGCAUCUUCGGAUGCAGAGGCGGCAGCCUUCGGUCGGGCGAUAGCGCCAACGUUCUCAACUAUGACACGCAAAACGCGUGCUCCGUUGAAUGGAGUUUAUCAUG [A17U A26U A47C A49C G83C C85G]	≤ -4.2
GGAUCUUCUCGAUCUAACAAAAAAGACAAAUCUGCCACAAAGCUUGAGAGCAUCUUCGGAUGCAGAGGCGGCAGCCUUCGGUGGCGUGAUAGCGCCAACGUUCUCAACUAUGACAUGCAAAACGCGUGCUCCGUUGAAUGGAGUUUAUCAUG [C87U C116U]	-0.851
GGAUCUUCUAGAUCUAACAAAAAAGACAAAUCUGCCACAAAGCUUGAAAGCAUCUGCGGAUGCAGAGGCGGCAGCCUUGGGUGGCGCGAUAGCGCAAACGUUCUCAACUAUGACACGCAAAACGCGUGCUCCGUUGAAUGGACUUUAUCAUG [C10A G48A U56G C79G C96A G143C]	≤ -4.2
GGAACUUCUCGAUCUAUCAAAAAAGACAAAUCUGCCACAAAGCUUGAGAGCAUCUUCGGAUGCAGGGGAGGCAGCCUUCGGUGUCGCGAUAGCGCCAACGUUCUCAACUAUGACACGCAAAACGCGUGCUCCGUUGAUUGGAGUUUAUCAUG [U4A A17U A66G C69A G84U A138U]	≤ -4.2
GGAUCUUCUCGAUCUAACAAAAAAGACAAAUCUGCCACAAAGCUUGAGAGCAUCUUCGGAUGCAGAGGCGGCAGCCUUCGGUGGCGCGAUAGCGCCAACAUUCUCAACUAUGACACGCAAAACGCGUGCUCCGUUUAAUGGUGUUUAUCAUG [G100A G136U A142U]	≤ -4.2
GGAUCUUCUCGAUCUAACAAAAUAGACGAAUGUGCCACAAAGCUUGAGAGCAUCUUCGGAUGCAGAGGCGGCAGCCUUCGGUGGUGCGAUAGCGCCAACGUUCUCAACUAUGACACGCAAAACGCGUUAUCCGUUGAAUGGAGUUGAUCAUG [A23U A28G C32G C85U G128U C129A U146G]	-4.14
GGAUCUUCUCUAUCUAACUAAAAAGACAAAUCUGCCACAAAGCUUGAGAGCAUCUUCGGAUGCAGAGGCGGCAGCCUUCGUUGGCGCGAUAGCGUCAACGUUCUCAACUAUGACACGCAAAACGCGUGCUCCGUUGAAUGGAGUUUAUCAUG [G11U A19U G81U C95U]	-1.81
GGAUCUACUCGAUGUAACAAAAAAGACAAACCUGCCACAAAGCUUGAGAGCAUCUUCGGAUGCAGAGGCGGCAGCCUUCGGUGGCACGAUAGCGCCAACGUUCUCAACUAUGACACGCAAAACGCGUGCUCCGUUGAAUGGAGUUUAUCAUG [U7A C14G U31C G86A]	≤ -4.2
GGAUCUUCUCGAUCUAACAAAAAAGACAAAUCUGCCACAAAGCUUGAGUGCAUCUGUGGAUGCAGAGGCGGCAGCCUUCGGUGGCGCGAUAGCGCUAACGUGCUCAACUAUGACACGCAAAACGCGUGCUCCGUUGAAUGGAGUUUAUCAUG [A49U U56G C57U C96U U102G]	-1.32
GGAUCUUCUCGAUCUAACAAAAAAGACAACUCUGCCACAAAUCUUGAGAGCAUUUUCGGAUGGAGAGACGGCAGCCUUCGGUGGCGCGAUAGUGCCAACGUUCUCAACUAUGACACGCAAGACGCGUGCUCCGUUGAAUAGAGUUUAUCAUG [A30C G42U C54U C63G G68A C93U A121G G140A]	≤ -4.2
GGAUCUUCUCGAUCUCACAAAAAAGACAAAUAUGCCACAAAGCUUGAGUGCAUCUUCGGAUGCAGAGGCGGCAGCCUUCGGUGGCGCGAUAGCGCCAACGUGCUCAACUAUGACACGCAAAACGCGUGGUCCGUUGAAUGGAGUUUAUCAUG [A16C C32A A49U U102G C129G]	≤ -4.2
GGAUCUUCUCGAUCUAACAAAAAAGACAAAUCUGCCACAAAGCUUGAGAGCAUCUUGGCAUGCAGAGGCGGCAGCCUUCGGUGGCGCGAUAGCGCCAACGUUCUCAACUAUGACACGCAAAACGCGUGCUCCGUUGAAUGGAGUUUAUCAUG [C57G G59C]	-0.566
GGAUCUUCUCGAUCUAACAAAAAAGACAAAUCUGCCACAAAGCUUGAGAGCAUCUUCGGAUGCAGAGGCGGCAGCCUUCGGUGGCGCGAUAGCGUCAACGUUCUCAACUAUGACACGCAAAACGCGUGCUCCGUUGAAUGGAGUUUAUUAUG [C95U C149U]	-0.647
GGGUCUUCUCGAUCUAACAAACAAGACAAAUCUGCCACAAAGCUUGAGAGCAUCUUCGGAUGCAGAGGCGGCAGCCUUCGGUGGCGCGAUAGCGCCAACGUUCUCAACUAUGACACGCAAAACGCGUGCUCCGUUGAAUGGAGUUUAUCAUG [A3G A22C]	-0.593
GGAUCUUCUCGAUCUAACAAAAAAGACAAAUCUGCCACAAAGCUUGAGAGCAUCUUCGGAUGCAGAGGCGGCAGCCUUCGGUGGCGCGAUAGCGCCAACGUUCUCAACUAUGACACGCAAAAGGCGUGCUCCUUUGAAUGGAGUUUAUCAUG [C123G G133U]	-3.68
GGAUCUUCUCGAUCUAACAAAAAAGACAAAUCUGCCACAAAGCUUGCGAACAUCUUCGGAUGCAGAGGCGGCAGCCUUCGGUGGCGCGAUAUCGCCAACGUUCUCAACUAUGACACGCAAAACGCGUGCUCCGUUGAAUGGAGUUUAUCAUG [A47C G50A G92U]	-1.37
GGAUCUUCUCGAUCUAACAAAAAAGACAAAUCUGCCACAAAACUUGAGAGCAUGUUCGGAUGCAGAGGCGGCAGCCUUCGGUGGCGCGAUUGCGCCAACGUUCUCAACUAUGACACGCAAAACGCGUGCUCCGUUGAAUGGAGUUUAUCAUG [G42A C54G A91U]	≤ -4.2
GGAUCUUCUCGAUCUAAGAAAAAAGACAAAUCUGCCACAAAGCUUGAGAGCAUCUUCGGAGGCAGAGGCGGCAGCCGUCGGCGGCGCGAUAGCGCCAACGUUGUCAACUAUGACACGCAAAACGCGUGCUCCGUUGAAUGGAGUUUAUCAUG [C18G U61G U77G U82C C103G]	≤ -4.2
